In the assay the target is BMP-2 (UniProt P12643). As to the kind of experiment: cell-based or functional assay.

Results on one substance are retold here after patent US20140199314A1.

Sequence of UniProt P12643 (P12643 283-396 limits assumed): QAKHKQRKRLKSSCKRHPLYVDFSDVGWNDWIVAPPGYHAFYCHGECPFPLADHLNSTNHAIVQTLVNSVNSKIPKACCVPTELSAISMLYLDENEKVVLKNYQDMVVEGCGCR

“DRAGON.Fc (soluble DRAGON fused to the Fc portion of human immunoglobulin) (from UniProt Q6NW40 46-409) (Fc fusion)”: the inhibition of BMP-2 induction of hepcidin promoter activity (luciferase) by 20% pooled serum from DRAGON.Fc treated mice; serum from mock treated control mice inhibited by about 30% is greater than 70%.
